B1: VEGF-c: VEGFR3 agonist polypeptide (SEQ ID NO: 1), flow modulator; in Examples 1-3 delivered by AAV1 vector expressing VEGF-c (protein, listed as Homo sapiens)
chain: MHLLGFFSVACSLLAAALLPGPREAPAAAAAFESGLDLSDAEPDAGEATAYASKDLEEQLRSVSSVDELMTVLYPEYWKMYKCQLRKGGWQHNREQANLNSRTEETIKFAAAHYNTEILKSIDNEWRKTQCMPREVCIDVGKEFGVATNTFFKPPCVSVYRCGGCCNSEGLQCMNTSTSYLSKTLFEITVPLSQGPKPVTISFANHTSCRCMSKLDVYRQVHSIIRRSLPATLPQCQAANKTCPTNYMWNNHICRCLAQEDFMFSSDAGDDSTDGFHDICGPNKELDEETCQCVCRAGLRPASCGPHKELDRNSCQCVCKNKLFPSQCGANREFDENTCQCVCKRTCPRNQPLNPGKCACECTESPQKCLLKGKKFHHQTCSCYRRPCTNRQKACEPGFSYSEEVCRCVPSYWKRPQMS

Experiments:
[1] = test system: human LECs; assay: Human LECs incubated with Aβ42, bulk RNA-seq; format: cell-based; settings: 100 nM, 24 h, vs scrambled peptide
Method: To determine whether the increased levels of Aβ alone could account for the observed changes in the LEC transcriptome, human LECs were incubated with 100 nM human Aβ1-42 (a monomeric/dimeric preparation) or control scrambled human Aβ1-42 peptide for 24 or 72 h (FIG. 5J).
Cultures of human LECs. […]
Bulk RNA sequencing. […] The mergedfastq files were then chastity filtered to remove low quality bases, trimmed using the trimmomatic software, and mapped to the UCSC […] genome using Salmon (Harrow, J. et al. GENCODE: the reference human genome annotation for The ENCODE Project. Genome Res 22, 1760-1774, (2012); Patro, R., Duggal, G., Love, M. I., Irizarry, R. A. & Kingsford, C. Salmon provides fast and bias-aware quantification of transcript expression. Nat Methods 14, 417-419, (2017)). […] The resulting transcript abundances were read into R and summarized using tximport (Soneson, C., Love, M. I. & Robinson, M. D. Differential analyses for RNA-seq: transcript-level estimates improve gene-level inferences. F1000Res 4, 1521, (2015)). […]

[2] = test system: 5×FAD mice; assay: Meningeal lymphatic and blood vessel morphology after i.c.m. AAV1-mVEGF-C plus anti-Abeta antibody; format: in vivo, mouse; settings: adult 5×FAD mice, AAV1 vector i.c.m., meningeal whole mounts
Method: Adult 5×FAD mice were treated with a combination of VEGF-c and an antibody that binds amyloid beta (ABETA Mab1) administered into the cisterna magna (i.c.m). After administration of AAV1 vector expressing VEGF-c or eGFP and the antibody according to schematic shown in FIG. 1A, brain and meningeal morphology was observed. Representative images of the meningeal whole-mounts of 5×FAD mice treated with different combinations of mIgG2a or monoclonal anti-amyloid beta antibody (“ABETA Ab”) with AAV1-CMV-eGFP or AAV1-CMV-mVEGF-C are shown in FIG. 1B. Meninges were stained for LYVE-1 and CD31; scale bar, 1 mm; inset, 300 m (FIG. 1B) Measurements of transverse sinus diameter, coverage by LYVE-1negCD31^+ blood vessels, total number of lymphatic branches, transverse sinus lymphatic vessel diameter and coverage by LYVE-1+ lymphatic vessels (See FIGS. 1C-1G). Results in FIGS. 1C-1G are presented as mean±s.e.m.; n=7 in eGFP+mIgG2a, n=6 in eGFP+ABETA Ab, in mVEGF-C+mIgG2a and in mVEGF-C+ABETA Ab; Two-way ANOVA with Sidak's multiple comparison test. In FIGS. 1D and 1G, the units for the Y-axis are percentage of field of view (“% FOV”).
Science 352, 712-716, (2016)) or microhemorrhages in the brain and meninges (Salloway, S. et al. Two phase 3 trials of bapineuzumab in mild-to-moderate Alzheimer's disease. […]

[3] = test system: meningeal lymphatic vessels; settings: Example 4 of WO2017/210343; cited from earlier work
[4] = test system: APPswe mice; assay: Brain Aβ plaques in aged APPswe mice after i.c.m. AAV1-mVEGF-C plus anti-Abeta antibody; format: in vivo, mouse; settings: with anti-amyloid beta antibody, vs eGFP vector
From the text: Age of APPswe mice and treatment regimen of anti-amyloid beta antibody with AA1 vector expressing VEGF-c or eGFB via i.c.m are shown in FIG. 3A. Results of behavioral tests (open field (OF), novel location recognition (NLR) and contextual fear conditioning (CFC)) are shown in FIGS. 3B-3D. […] Time investigating one of the object location (% of total time investigating objects) in the training trial and time investigating the novel object location (% of total time investigating) in the NLR test are shown in FIG. 3C. Representative images of the brain sections of APPswe mice treated with anti-Abeta antibody and with AAV1-CMV-eGFP or AAV1-CMV-mVEGF-C are shown in FIG. 3E. Brain sections were stained for Aβ and with DAPI; scale bar, 1 mm. FIGS. 3F-3G show plaque density (number of plaques per mm^2), average size (m^2) and coverage (% of brain section) in the cortex and amygdala or in the hippocampus. Results in FIGS. 3B-3D, 3F, and 3G are presented as mean s.e.m.; n=11 per group; Two-tailed unpaired Student's T test.
Intra-cisterna magna and intravenous injections. Mice were anaesthetized by intraperitoneal (i.p.) injection of a mixed solution of ketamine (100 mg/Kg) and xylazine (10 mg/Kg) in saline. […]
Immunohistochemistry, imaging and quantifications. […]

Molecule | gene expression in human LECs [1] | lymphatic diameter [2] | diameters of meningeal lymphatic vessels [3] | number of plaques in the cortex and amygdala [4] | number of plaques in the hippocampus [4]
Aβ1-42: synthetic monomeric/dimeric human amyloid beta 1-42 peptides (Anaspec AS-20276) | Changes in gene expression | – | – | – | –
B1 | – | increased lymphatic diameter | increase the diameters of meningeal lymphatic vessels | reduced the number of plaques | reduced the number of plaques
